Results taken from patent US11634477 (dated 2023).

B1: C018 (antibody, V domains shown)
VH: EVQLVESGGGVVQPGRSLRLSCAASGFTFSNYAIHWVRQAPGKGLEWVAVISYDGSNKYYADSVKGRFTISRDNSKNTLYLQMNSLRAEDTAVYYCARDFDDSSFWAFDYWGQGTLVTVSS
VL: DIQLTQSPSSLSASVGDRVTITCRASQSIRSYLNWYQQKPGKAPKLLIYAASSLQSGVPSRFSGSGSGTDFTLTISSLQPDDFATYYCQQSYSTPPATFGQGTKLEIK
B2: C019 (antibody, V domains shown)
VH: QVQLVQSGAEVKKPGASVKVSCKASGYTFTSYYMHWVRQAPGQGLEWMGIINPSGGSTSYAQKFQGRVTMTRDTSTSTVYMELSSLRSEDTAVYYCARVPREGTPGFDPWGQGTLVTVSS
VL: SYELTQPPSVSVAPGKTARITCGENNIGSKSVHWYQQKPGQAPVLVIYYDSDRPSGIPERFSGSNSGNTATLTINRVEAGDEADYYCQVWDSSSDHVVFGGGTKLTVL
B3: C110 (antibody, V domains shown)
VH: QVQLQQSGAEVKKPGESLKISCKGSGYSFTSYWIGWVRQMPGKGLEWMGIIYPGDSDTRYSPSFQGQVTISADKSISTAYMQWSSLKASDTAMYYCARSFRDDPRIAVAGPADAFDIWGQGTMVTVSS
VL: DIQMTQSPSTLSASVGDRVTITCRASQSISYWLAWYQQKPGKAPKLLIYQASSLESGVPSRFSGSESGTEFTLTISSLQPDDFATYYCQQYNSYPYTFGQGTKLEIK
B4: C202 (antibody, V domains shown)
VH: EVQLVESGGGLVQPGGSLRLSCAASGFTVSSNYMSWVRQAPGKGLEWVSLIYSGGSTYYADSVKGRFTISRDNSKNTLYLQMNSLRAEDTAVYYCARDTLGRGGDYWGQGTLVTVSS
VL: DIQLTQSPSSLSASVGDRVTITCQASQDISNYLNWYQQKPGKAPKLLIYDASNLETGVPSRFSGSGSGTDFTFTISSLQPEDIATYYCQQYDNLPRSFGQGTKLEIK
B5: C031 (antibody, V domains shown)
VH: EVQLVESGGGLVQPGGSLRLSCAASGFTFSSYDMHWVRQATGKGLEWVSAIGTAGDTYYPGSVKGRFTISRENAKNSLYLQMNSLRAGDTAVYYCARVGYDSSGYSGWYFDLWGRGTLVTVSS
VL: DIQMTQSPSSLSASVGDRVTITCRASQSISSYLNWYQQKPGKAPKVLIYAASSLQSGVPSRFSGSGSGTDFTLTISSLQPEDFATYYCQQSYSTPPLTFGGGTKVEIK
B6: C143 (antibody, V domains shown)
VH: EVQLVESGGGLVQPGGSLRLSCAASGFSVSTKYMTWVRQAPGKGLEWVSVLYSGGSDYYADSVKGRFTISRDNSKNALYLQMNSLRVEDTGVYYCARDSSEVRDHPGHPGRSVGAFDIWGQGTMVTVSS
VL: QSALTQPASVSGSPGQSITISCTGTSNDVGSYTLVSWYQQYPGKAPKLLIFEGTKRSSGISNRFSGSKSGNTASLTISGLQGEDEADYYCCSYAGASTFVFGGGTKLTVL
B7: C021 (antibody, V domains shown)
VH: QVQLQESGPGLVKPSQTLSLTCTVSGGSISSGGYYWSWIRQHPGKGLEWIGYIYYSGSTYYNPSLKSRVTISVDTSKNQFSLKLSSVTAADTAVYYCARVWQYYDSSGSFDYWGQGTLVTVSS
VL: not shown
B8: C006 (antibody, V domains shown)
VH: QVQLVESGGGLVKPGGSLRLSCAASGFIFSDYCMSWIRRAPGKGLEWLSYISNSGTTRYYADSVKGRFTISRDNGRNSLYLQMDSLSAEDTAVYYCARRGDGSSSIYYYNYMDVWGKGTTVTVSS
VL: not shown
B9: C210 (antibody, V domains shown)
VH: EVQLVESGGGLIQPGGSLRLSCAASGFTVSSNYMSWVRQAPGKGLEWVSVIYSGGSTFYADSVKGRFTFSRDNSKNTLYLQMNSLRAEDTAVYYCARDLMAYGMDVWGQGTTVTVSS
VL: DIQLTQSPSFLSASVGDRVTITCRASQGISSYLAWYQQKPGKAPKLLIYAASTLQSGVPSRFSGSGSGTEFTLTISSLQPEDFATYYCQQLNSYPQGTFGGGTKVEIK
B10: C205 (antibody, V domains shown)
VH: QVQLVQSGAEVKKPGASVKVSCKASGHTFTSYYMHWVRQAPGQGLEWMGIINPSGGSTSYAQKFQGRVTMTRDTSTSTVYMELSSLRSEDTAVYYCARGPERGIVGATDYFDYWGQGTLVTVSS
VL: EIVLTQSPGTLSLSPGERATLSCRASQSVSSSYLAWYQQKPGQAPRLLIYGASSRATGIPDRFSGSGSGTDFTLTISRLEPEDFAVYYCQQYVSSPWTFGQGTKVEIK

How the values were obtained:
SARS-CoV RBD = SARS-CoV RBD (SARS-CoV, UniProt P59594); assay: ELISA
SARS-CoV-2 RBD = SARS-CoV-2 RBD (SARS-CoV-2, UniProt P0DTC2); assay: ELISA

Binder	EC50 (SARS-CoV RBD) [µg/mL]	EC50 (SARS-CoV-2 RBD) [µg/mL]
B1	> 1	0.00153
B2	> 1	0.0118
B3	> 1	0.00729
B4	> 1	0.0034
B5	> 1	0.0227
B6	> 1	0.00366
B7	> 1	0.00125
B8	> 1	0.00181
B9	> 1	0.00283
B10	> 1	> 1
